From patent publication US20140087995A1 (published 2014)
Blank lines part the entries; values can stand above or below the binder they belong to. Numbered stars: 1 amine (or outer) side, 2 acyl side, 3 side chain; on linkers, the order of the positions; unused ones are H or OH. Bridge positions count the residues as written; N and C are the ends. Side chains are listed from the residue outwards. Ends that are not written are not given here. * marks the point of attachment. C20 diacid = O=C(O)CCCCCCCCCCCCCCCCCCC(=O)*; γGlu = O=C(O)[C@H](CCC(=O)[*:2])N[*:1]

Target: T1, human calcitonin receptor (human, UniProt P30988 25-474)
T1 construct: whole, on cells; Used as cell membranes prepared from the transfected BHK cells (Assay VII), not as intact cells; also called hCTR; hCT
T1 sequence (looked up): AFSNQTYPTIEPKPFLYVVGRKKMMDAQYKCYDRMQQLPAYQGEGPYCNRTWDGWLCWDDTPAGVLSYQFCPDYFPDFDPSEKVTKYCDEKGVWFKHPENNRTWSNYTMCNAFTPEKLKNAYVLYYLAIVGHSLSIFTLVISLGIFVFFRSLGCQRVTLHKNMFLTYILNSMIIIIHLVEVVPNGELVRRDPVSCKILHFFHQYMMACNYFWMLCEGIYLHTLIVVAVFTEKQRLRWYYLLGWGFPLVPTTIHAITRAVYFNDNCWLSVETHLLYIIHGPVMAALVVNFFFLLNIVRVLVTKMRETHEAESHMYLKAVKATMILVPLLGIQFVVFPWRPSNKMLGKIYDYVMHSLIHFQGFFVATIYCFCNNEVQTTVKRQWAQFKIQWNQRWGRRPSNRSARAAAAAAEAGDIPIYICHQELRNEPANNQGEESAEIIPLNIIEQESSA
Assay: SPA competition against 125I-calcitonin, membranes with human calcitonin receptor (Assay VII)
Protocol: Membranes were prepared in the following way; the cells were rinsed with PBS and incubated with Versene for approximately 5 min before harvesting. The cells were flushed with PBS and the cell-suspension was centrifuged for 5 min at 1000 rpm. Cells were homogenized (Ultrathurrax) in a buffer containing 20 mM Na-HEPES and 10 mM EDTA (pH 7.4) and centrifuged at 20.000 rpm for 15 min. The resulting pellet was resuspended, homogenized and centrifuged (20.000 rpm, 15 min) in a buffer containing 20 mM Na-HEPES and 0.1 mM EDTA (pH 7.4, buffer 2). The resulting pellet was resuspended in buffer 2 and protein concentration was measured (BCA protein Assay, Pierce). The homogenate was kept cold during the whole procedure. The membranes were kept at −80° C. until use. Assay was performed in a 384 well Optiplate (PerkinElmer) in a total volume of 40 ul. Membranes were mixed with SPA beads. Final concentration of membranes 35 ng/μL final and Final concentration of SPA beads was 0.05 mg/well. Test-compounds were dissolved in DMSO and further diluted in assay buffer (50 mM Hepes, pH 7.4, 1 mM CaCl2, 5 mM MgCl₂, 0.1% OA and 0.02% Tween20). […] The final mixture was incubated for 120 min with shaking at 400 rpm at 25° C. prior to centrifugation (1500 rpm, 10 min). Samples were analyzed on TopCounter™ (Packard). The […] was calculated using (one site binding competition analysis) GraphPad Prism5 as a measure of receptor affinity.

IC50: 0.0345 µM
B1: N^ε1-[(4S)-4-carboxy-4-(19-carboxynonadecanoylamino)butanoyl]-[Arg17,Pro21,Pro27,Glu35]-h-amylin (peptide)
peptide: K([γGlu-C20 diacid])CNTATCATQRLANFLRHSSPNFGAIPSSTNVGSETY-NH2
modifications: disulfide 2-7; N-terminus assumed
SMILES: CC[C@H](C)[C@H](NC(=O)[C@H](C)NC(=O)CNC(=O)[C@H](Cc1ccccc1)NC(=O)[C@H](CC(N)=O)NC(=O)[C@@H]1CCCN1C(=O)[C@H](CO)NC(=O)[C@H](CO)NC(=O)[C@H](Cc1c[nH]cn1)NC(=O)[C@H](CCCNC(=N)N)NC(=O)[C@H](CC(C)C)NC(=O)[C@H](Cc1ccccc1)NC(=O)[C@H](CC(N)=O)NC(=O)[C@H](C)NC(=O)[C@H](CC(C)C)NC(=O)[C@H](CCCNC(=N)N)NC(=O)[C@H](CCC(N)=O)NC(=O)[C@@H](NC(=O)[C@H](C)NC(=O)[C@@H]1CSSC[C@H](NC(=O)[C@@H](N)CCCCNC(=O)CC[C@H](NC(=O)CCCCCCCCCCCCCCCCCCC(=O)O)C(=O)O)C(=O)N[C@@H](CC(N)=O)C(=O)N[C@@H]([C@@H](C)O)C(=O)N[C@@H](C)C(=O)N[C@@H]([C@@H](C)O)C(=O)N1)[C@@H](C)O)C(=O)N1CCC[C@H]1C(=O)N[C@@H](CO)C(=O)N[C@@H](CO)C(=O)N[C@H](C(=O)N[C@@H](CC(N)=O)C(=O)N[C@H](C(=O)NCC(=O)N[C@@H](CO)C(=O)N[C@@H](CCC(=O)O)C(=O)N[C@H](C(=O)N[C@@H](Cc1ccc(O)cc1)C(N)=O)[C@@H](C)O)C(C)C)[C@@H](C)O
notes: also called compound 27

IC50: 0.0488 µM
B2: N^ε1-[(4S)-4-carboxy-4-(19-carboxynonadecanoylamino)butanoyl]-[Arg17,Pro21,Pro27,Lys35]-h-amylin (peptide)
peptide: K([γGlu-C20 diacid])CNTATCATQRLANFLRHSSPNFGAIPSSTNVGSKTY-NH2
modifications: disulfide 2-7; N-terminus assumed
SMILES: CC[C@H](C)[C@H](NC(=O)[C@H](C)NC(=O)CNC(=O)[C@H](Cc1ccccc1)NC(=O)[C@H](CC(N)=O)NC(=O)[C@@H]1CCCN1C(=O)[C@H](CO)NC(=O)[C@H](CO)NC(=O)[C@H](Cc1c[nH]cn1)NC(=O)[C@H](CCCNC(=N)N)NC(=O)[C@H](CC(C)C)NC(=O)[C@H](Cc1ccccc1)NC(=O)[C@H](CC(N)=O)NC(=O)[C@H](C)NC(=O)[C@H](CC(C)C)NC(=O)[C@H](CCCNC(=N)N)NC(=O)[C@H](CCC(N)=O)NC(=O)[C@@H](NC(=O)[C@H](C)NC(=O)[C@@H]1CSSC[C@H](NC(=O)[C@@H](N)CCCCNC(=O)CC[C@H](NC(=O)CCCCCCCCCCCCCCCCCCC(=O)O)C(=O)O)C(=O)N[C@@H](CC(N)=O)C(=O)N[C@@H]([C@@H](C)O)C(=O)N[C@@H](C)C(=O)N[C@@H]([C@@H](C)O)C(=O)N1)[C@@H](C)O)C(=O)N1CCC[C@H]1C(=O)N[C@@H](CO)C(=O)N[C@@H](CO)C(=O)N[C@H](C(=O)N[C@@H](CC(N)=O)C(=O)N[C@H](C(=O)NCC(=O)N[C@@H](CO)C(=O)N[C@@H](CCCCN)C(=O)N[C@H](C(=O)N[C@@H](Cc1ccc(O)cc1)C(N)=O)[C@@H](C)O)C(C)C)[C@@H](C)O
notes: also called compound 35
